Consider one molecule from paper doi:10.1101/2025.08.03.668247, “The structure of Egalitarian in complex with the K10 mRNA localization signal reveals a modular binding surface required for function”.

Test in all cases: fluorescence anisotropy; FA: 20 mM HEPES-NaOH pH 7.5, 100 mM NaCl, 10% glycerol, 20 C, 10 nM FAM-RNA; competition: 150 nM Egl512-819 + 10 nM FAM-K10 TLS, same buffer
Data set [1] concerns the target T1, Egl512-931 (Drosophila melanogaster, UniProt Q9W1K4 512-931).
T1 sequence: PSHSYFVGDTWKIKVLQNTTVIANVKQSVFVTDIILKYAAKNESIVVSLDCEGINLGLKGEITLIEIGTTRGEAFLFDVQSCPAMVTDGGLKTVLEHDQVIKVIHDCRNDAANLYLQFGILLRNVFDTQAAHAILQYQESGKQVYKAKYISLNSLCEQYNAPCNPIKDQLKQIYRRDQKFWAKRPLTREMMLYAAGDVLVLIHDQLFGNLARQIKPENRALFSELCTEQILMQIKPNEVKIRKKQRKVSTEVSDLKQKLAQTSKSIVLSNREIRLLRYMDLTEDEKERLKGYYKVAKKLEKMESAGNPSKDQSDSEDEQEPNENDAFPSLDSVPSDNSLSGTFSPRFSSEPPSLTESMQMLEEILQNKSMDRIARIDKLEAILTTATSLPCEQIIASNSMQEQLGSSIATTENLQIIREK
As to conditions: protein: recombinant; tags: N-terminal GST; label: 5'-6-FAM; hairpin with two bulges.

Data set [2] has as its target T2, R782A (Drosophila melanogaster, UniProt Q9W1K4 512-819, R782A).
T2 sequence: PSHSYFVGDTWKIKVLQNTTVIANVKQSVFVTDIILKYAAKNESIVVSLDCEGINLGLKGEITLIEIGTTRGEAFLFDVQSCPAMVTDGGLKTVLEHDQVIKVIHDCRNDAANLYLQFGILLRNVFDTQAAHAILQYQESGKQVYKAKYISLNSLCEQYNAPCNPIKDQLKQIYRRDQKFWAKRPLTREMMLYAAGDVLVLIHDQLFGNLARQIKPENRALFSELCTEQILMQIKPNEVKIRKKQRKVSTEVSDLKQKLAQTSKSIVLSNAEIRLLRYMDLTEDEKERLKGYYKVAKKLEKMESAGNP
The following applies: protein: recombinant; tags: N-terminal GST; label: 5'-6-FAM; hairpin with two bulges.

Data set [3] has as its target T3, K659E (Drosophila melanogaster, UniProt Q9W1K4 512-819, K659E).
T3 sequence: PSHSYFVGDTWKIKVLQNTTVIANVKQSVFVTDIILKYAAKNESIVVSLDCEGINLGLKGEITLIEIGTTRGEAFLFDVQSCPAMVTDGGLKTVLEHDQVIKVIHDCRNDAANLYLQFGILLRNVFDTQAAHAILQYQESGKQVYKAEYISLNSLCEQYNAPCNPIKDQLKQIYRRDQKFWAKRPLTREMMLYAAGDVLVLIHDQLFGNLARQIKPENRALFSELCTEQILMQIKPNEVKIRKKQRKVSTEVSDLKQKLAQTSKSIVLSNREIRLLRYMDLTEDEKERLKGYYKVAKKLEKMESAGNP
The following applies: protein: recombinant; tags: N-terminal GST; label: 5'-6-FAM; hairpin with two bulges.

Data set [4] deals with T4, Egl512-1004 (Drosophila melanogaster, UniProt Q9W1K4 512-1004).
T4 sequence: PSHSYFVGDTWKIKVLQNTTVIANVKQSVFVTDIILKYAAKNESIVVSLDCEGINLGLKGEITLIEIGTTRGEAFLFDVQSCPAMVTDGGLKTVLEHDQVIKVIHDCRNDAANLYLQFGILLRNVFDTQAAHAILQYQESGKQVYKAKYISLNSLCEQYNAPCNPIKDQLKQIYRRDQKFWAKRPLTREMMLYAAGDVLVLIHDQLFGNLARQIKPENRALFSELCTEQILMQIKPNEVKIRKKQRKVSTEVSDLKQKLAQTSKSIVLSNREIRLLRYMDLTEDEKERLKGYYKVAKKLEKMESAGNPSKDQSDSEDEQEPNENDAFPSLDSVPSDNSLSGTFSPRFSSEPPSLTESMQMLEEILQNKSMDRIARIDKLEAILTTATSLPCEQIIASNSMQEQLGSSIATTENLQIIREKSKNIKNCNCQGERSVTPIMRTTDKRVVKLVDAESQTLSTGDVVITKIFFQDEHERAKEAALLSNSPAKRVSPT
As to conditions: protein: recombinant; tags: N-terminal GST; label: 5'-6-FAM; hairpin with two bulges.

The target of data set [5] is T5, GST-Egl512-819 (Drosophila melanogaster, UniProt Q9W1K4 512-819).
T5 sequence: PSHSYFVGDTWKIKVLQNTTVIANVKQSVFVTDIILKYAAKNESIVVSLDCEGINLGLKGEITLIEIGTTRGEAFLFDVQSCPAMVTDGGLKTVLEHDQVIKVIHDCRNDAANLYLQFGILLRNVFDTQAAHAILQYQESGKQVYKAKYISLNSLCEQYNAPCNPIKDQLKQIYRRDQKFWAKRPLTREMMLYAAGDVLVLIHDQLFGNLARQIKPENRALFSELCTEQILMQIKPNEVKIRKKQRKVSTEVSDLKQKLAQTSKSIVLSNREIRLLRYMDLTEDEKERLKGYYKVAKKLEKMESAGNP
The following applies: protein: recombinant; tags: N-terminal GST (TEV site); label: 5'-6-FAM; hairpin with two bulges.

Broadly, the Kd is a measure of binding affinity in units of concentration. Take CUUGAUUGUAUUUUUAAAUUAAUUCUUAAAAACUACAAAUUAAG (structured_RNA) [K10 TLS (FAM)]: the dissociation constant Kd in data set [1] is 164 ± 7 nM; in data set [2] it was 284 ± 13 nM; in data set [3], 418 ± 40 nM; in data set [4] it was 144 ± 6 nM; in data set [5], 130 ± 6 nM.
